# Experimental data: US20140087995A1 (published 2014)
# Numbered stars: 1 amine (or outer) side, 2 acyl side, 3 side chain; on linkers, the order of the positions; unused ones are H or OH. Bridge positions count the residues as written; N and C are the ends. Side chains are listed from the residue outwards. Ends that are not written are not given here. * marks the point of attachment. C20 diacid = O=C(O)CCCCCCCCCCCCCCCCCCC(=O)*; γGlu = O=C(O)[C@H](CCC(=O)[*:2])N[*:1]; AEEA = NCCOCCOCC(=O)O
# T1: human amylin receptor (human calcitonin receptor co-expressed with RAMP-3; amylin 3(a) receptor) (human, UniProt P30988 25-474; O60896 24-148, limits assumed)
# T1 construct: whole, on cells; Used as cell membranes prepared from Amylin 3(a)/CRE-luc BHK cells (Assay V), not as intact cells; also called hAmylin-R; hAmylinR
# T1 sequence (looked up) 1: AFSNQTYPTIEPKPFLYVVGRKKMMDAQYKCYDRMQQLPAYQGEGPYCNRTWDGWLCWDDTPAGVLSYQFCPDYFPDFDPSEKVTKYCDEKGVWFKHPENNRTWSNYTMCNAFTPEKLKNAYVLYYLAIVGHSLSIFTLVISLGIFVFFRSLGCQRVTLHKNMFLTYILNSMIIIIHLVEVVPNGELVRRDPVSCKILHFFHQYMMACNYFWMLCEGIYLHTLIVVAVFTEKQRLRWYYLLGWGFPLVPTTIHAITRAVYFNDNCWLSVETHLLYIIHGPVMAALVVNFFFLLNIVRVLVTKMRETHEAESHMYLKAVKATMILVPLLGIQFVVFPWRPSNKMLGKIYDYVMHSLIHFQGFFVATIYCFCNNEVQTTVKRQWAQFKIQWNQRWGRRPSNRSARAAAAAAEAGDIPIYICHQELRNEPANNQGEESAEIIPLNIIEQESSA
# T1 sequence (looked up) 2: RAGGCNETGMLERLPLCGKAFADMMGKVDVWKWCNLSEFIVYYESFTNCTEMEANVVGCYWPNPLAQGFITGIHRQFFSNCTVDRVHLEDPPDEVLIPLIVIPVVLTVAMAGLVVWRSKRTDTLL
# T2: human calcitonin receptor (human, UniProt P30988 25-474)
# T2 construct: whole, on cells; Used as cell membranes prepared from the transfected BHK cells (Assay VII), not as intact cells; also called hCTR; hCT
# T2 sequence (looked up): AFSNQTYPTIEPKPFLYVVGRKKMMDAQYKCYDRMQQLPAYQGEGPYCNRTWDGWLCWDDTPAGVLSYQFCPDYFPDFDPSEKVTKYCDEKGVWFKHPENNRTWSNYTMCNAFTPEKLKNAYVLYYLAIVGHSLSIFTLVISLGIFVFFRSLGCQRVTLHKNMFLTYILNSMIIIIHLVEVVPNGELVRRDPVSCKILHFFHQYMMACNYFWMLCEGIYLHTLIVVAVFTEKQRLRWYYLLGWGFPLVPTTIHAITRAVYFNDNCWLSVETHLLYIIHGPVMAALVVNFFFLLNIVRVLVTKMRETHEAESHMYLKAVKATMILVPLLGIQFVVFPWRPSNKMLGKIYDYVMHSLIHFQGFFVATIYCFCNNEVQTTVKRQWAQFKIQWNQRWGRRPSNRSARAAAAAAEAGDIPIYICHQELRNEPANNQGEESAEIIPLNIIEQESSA
# How the values were obtained:
# [1] = molecular target: T1, human amylin receptor (human calcitonin …); experiment: ratio of hCTR binding IC50 to hAmylin-R binding IC50 (reference: human calcitonin receptor)
# Procedure: The resulting pellet was resuspended, homogenized and centrifuged (20.000 rpm, 15 min) in a buffer containing 20 mM Na-HEPES and 0.1 mM EDTA (pH 7.4, buffer 2). The resulting pellet was resuspended in buffer 2 and protein concentration was measured (BCA protein Assay, Pierce). The homogenate was kept cold during the whole procedure. The membranes were kept at −80° C. until use. The assay was performed in a 384 well Optiplate (PerkinElmer) in a total volume of 40 ul. Membranes were mixed with SPA beads. Final concentration of membranes 35 ng/μL final and SPA beads was 0.05 mg/well. Test-compounds were dissolved in DMSO and further diluted in assay buffer (50 mM Hepes, pH 7.4, 1 mM CaCl2, 5 mM MgCl₂, 0.1% OA and 0.02% Tween20). […] The final mixture was incubated with shaking at 400 rpm for 120 min at 25° C. prior to centrifugation (1500 rpm, 10 min). Samples were analyzed on TopCounter™ (Packard). The IC₅₀ was calculated using (one site binding competition analysis) GraphPad Prism5 as a measure of receptor affinity.
# Membranes were prepared in the following way; the cells were rinsed with PBS and incubated with Versene for approximately 5 min before harvesting. The cells were flushed with PBS and the cell-suspension was centrifuged for 5 min at 1000 rpm. Cells were homogenized (Ultrathurrax) in a buffer containing 20 mM Na-HEPES and 10 mM EDTA (pH 7.4) and centrifuged at 20.000 rpm for 15 min. The resulting pellet was resuspended, homogenized and centrifuged (20.000 rpm, 15 min) in a buffer containing 20 mM Na-HEPES and 0.1 mM EDTA (pH 7.4, buffer 2). The resulting pellet was resuspended in buffer 2 and protein concentration was measured (BCA protein Assay, Pierce). The homogenate was kept cold during the whole procedure. The membranes were kept at −80° C. until use. Assay was performed in a 384 well Optiplate (PerkinElmer) in a total volume of 40 ul. Membranes were mixed with SPA beads.
# [2] = molecular target: T2, human calcitonin receptor; experiment: SPA competition against 125I-calcitonin, membranes with human calcitonin receptor (Assay VII)
# How it was run: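 BHK hCTR membranes 35 ng/μL + SPA beads 0.05 mg/well; buffer 50 mM Hepes pH 7.4, 1 mM CaCl2, 5 mM MgCl₂, 0.1% OA, 0.02% Tween20. 120 min, 25° C., shaking. Scintillation count; IC50 by one-site binding competition.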
Binder,Ratio hCT/hAmylin binding [1],IC50 [2] [nM]
"K([AEEA-γGlu-C20 diacid])CNTATCATQRLARFLRHSSPNFGAIPSSTPVGSNTY-NH2 (disulfide 2-7; N-terminus assumed; SMILES CC[C@H](C)[C@H](NC(=O)[C@H](C)NC(=O)CNC(=O)[C@H](Cc1ccccc1)NC(=O)[C@H](CC(N)=O)NC(=O)[C@@H]1CCCN1C(=O)[C@H](CO)NC(=O)[C@H](CO)NC(=O)[C@H](Cc1c[nH]cn1)NC(=O)[C@H](CCCNC(=N)N)NC(=O)[C@H](CC(C)C)NC(=O)[C@H](Cc1ccccc1)NC(=O)[C@H](CCCNC(=N)N)NC(=O)[C@H](C)NC(=O)[C@H](CC(C)C)NC(=O)[C@H](CCCNC(=N)N)NC(=O)[C@H](CCC(N)=O)NC(=O)[C@@H](NC(=O)[C@H](C)NC(=O)[C@@H]1CSSC[C@H](NC(=O)[C@@H](N)CCCCNC(=O)COCCOCCNC(=O)CC[C@H](NC(=O)CCCCCCCCCCCCCCCCCCC(=O)O)C(=O)O)C(=O)N[C@@H](CC(N)=O)C(=O)N[C@@H]([C@@H](C)O)C(=O)N[C@@H](C)C(=O)N[C@@H]([C@@H](C)O)C(=O)N1)[C@@H](C)O)C(=O)N1CCC[C@H]1C(=O)N[C@@H](CO)C(=O)N[C@@H](CO)C(=O)N[C@H](C(=O)N1CCC[C@H]1C(=O)N[C@H](C(=O)NCC(=O)N[C@@H](CO)C(=O)N[C@@H](CC(N)=O)C(=O)N[C@H](C(=O)N[C@@H](Cc1ccc(O)cc1)C(N)=O)[C@@H](C)O)C(C)C)[C@@H](C)O, also called compound 64)",126,56
"K([AEEA-γGlu-C20 diacid])CNTATCATQRLANFLRHSSPNFGAIPPSTPVGSNTY-NH2 (disulfide 2-7, also called compound 53)",104,5.38
"K([AEEA-γGlu-C20 diacid])CNTATCATQRLANFLRHSSPNFGAIPPSTNVGPNTY-NH2 (disulfide 2-7; N-terminus assumed; SMILES CC[C@H](C)[C@H](NC(=O)[C@H](C)NC(=O)CNC(=O)[C@H](Cc1ccccc1)NC(=O)[C@H](CC(N)=O)NC(=O)[C@@H]1CCCN1C(=O)[C@H](CO)NC(=O)[C@H](CO)NC(=O)[C@H](Cc1c[nH]cn1)NC(=O)[C@H](CCCNC(=N)N)NC(=O)[C@H](CC(C)C)NC(=O)[C@H](Cc1ccccc1)NC(=O)[C@H](CC(N)=O)NC(=O)[C@H](C)NC(=O)[C@H](CC(C)C)NC(=O)[C@H](CCCNC(=N)N)NC(=O)[C@H](CCC(N)=O)NC(=O)[C@@H](NC(=O)[C@H](C)NC(=O)[C@@H]1CSSC[C@H](NC(=O)[C@@H](N)CCCCNC(=O)COCCOCCNC(=O)CC[C@H](NC(=O)CCCCCCCCCCCCCCCCCCC(=O)O)C(=O)O)C(=O)N[C@@H](CC(N)=O)C(=O)N[C@@H]([C@@H](C)O)C(=O)N[C@@H](C)C(=O)N[C@@H]([C@@H](C)O)C(=O)N1)[C@@H](C)O)C(=O)N1CCC[C@H]1C(=O)N1CCC[C@H]1C(=O)N[C@@H](CO)C(=O)N[C@H](C(=O)N[C@@H](CC(N)=O)C(=O)N[C@H](C(=O)NCC(=O)N1CCC[C@H]1C(=O)N[C@@H](CC(N)=O)C(=O)N[C@H](C(=O)N[C@@H](Cc1ccc(O)cc1)C(N)=O)[C@@H](C)O)C(C)C)[C@@H](C)O, also called compound 55)",51.8,2.17
"K([AEEA-γGlu-C20 diacid])CNTATCATQRLANFLRHSSPNFGAIPSPTPVGSNTY-NH2 (disulfide 2-7; N-terminus assumed; SMILES CC[C@H](C)[C@H](NC(=O)[C@H](C)NC(=O)CNC(=O)[C@H](Cc1ccccc1)NC(=O)[C@H](CC(N)=O)NC(=O)[C@@H]1CCCN1C(=O)[C@H](CO)NC(=O)[C@H](CO)NC(=O)[C@H](Cc1c[nH]cn1)NC(=O)[C@H](CCCNC(=N)N)NC(=O)[C@H](CC(C)C)NC(=O)[C@H](Cc1ccccc1)NC(=O)[C@H](CC(N)=O)NC(=O)[C@H](C)NC(=O)[C@H](CC(C)C)NC(=O)[C@H](CCCNC(=N)N)NC(=O)[C@H](CCC(N)=O)NC(=O)[C@@H](NC(=O)[C@H](C)NC(=O)[C@@H]1CSSC[C@H](NC(=O)[C@@H](N)CCCCNC(=O)COCCOCCNC(=O)CC[C@H](NC(=O)CCCCCCCCCCCCCCCCCCC(=O)O)C(=O)O)C(=O)N[C@@H](CC(N)=O)C(=O)N[C@@H]([C@@H](C)O)C(=O)N[C@@H](C)C(=O)N[C@@H]([C@@H](C)O)C(=O)N1)[C@@H](C)O)C(=O)N1CCC[C@H]1C(=O)N[C@@H](CO)C(=O)N1CCC[C@H]1C(=O)N[C@H](C(=O)N1CCC[C@H]1C(=O)N[C@H](C(=O)NCC(=O)N[C@@H](CO)C(=O)N[C@@H](CC(N)=O)C(=O)N[C@H](C(=O)N[C@@H](Cc1ccc(O)cc1)C(N)=O)[C@@H](C)O)C(C)C)[C@@H](C)O, also called compound 54)",146,4.38
"K([AEEA-γGlu-C20 diacid])CNTATCATQRLANFLRHSSPNFGAIPSPTNVGPNTY-NH2 (disulfide 2-7; N-terminus assumed; SMILES CC[C@H](C)[C@H](NC(=O)[C@H](C)NC(=O)CNC(=O)[C@H](Cc1ccccc1)NC(=O)[C@H](CC(N)=O)NC(=O)[C@@H]1CCCN1C(=O)[C@H](CO)NC(=O)[C@H](CO)NC(=O)[C@H](Cc1c[nH]cn1)NC(=O)[C@H](CCCNC(=N)N)NC(=O)[C@H](CC(C)C)NC(=O)[C@H](Cc1ccccc1)NC(=O)[C@H](CC(N)=O)NC(=O)[C@H](C)NC(=O)[C@H](CC(C)C)NC(=O)[C@H](CCCNC(=N)N)NC(=O)[C@H](CCC(N)=O)NC(=O)[C@@H](NC(=O)[C@H](C)NC(=O)[C@@H]1CSSC[C@H](NC(=O)[C@@H](N)CCCCNC(=O)COCCOCCNC(=O)CC[C@H](NC(=O)CCCCCCCCCCCCCCCCCCC(=O)O)C(=O)O)C(=O)N[C@@H](CC(N)=O)C(=O)N[C@@H]([C@@H](C)O)C(=O)N[C@@H](C)C(=O)N[C@@H]([C@@H](C)O)C(=O)N1)[C@@H](C)O)C(=O)N1CCC[C@H]1C(=O)N[C@@H](CO)C(=O)N1CCC[C@H]1C(=O)N[C@H](C(=O)N[C@@H](CC(N)=O)C(=O)N[C@H](C(=O)NCC(=O)N1CCC[C@H]1C(=O)N[C@@H](CC(N)=O)C(=O)N[C@H](C(=O)N[C@@H](Cc1ccc(O)cc1)C(N)=O)[C@@H](C)O)C(C)C)[C@@H](C)O, also called compound 56)",42.6,2.09
